This is an account of results in publication PMC4199230.

The target of this test is 6X-His-PTPROt-CS/DA. The test can be described thus: pull-down.

With “HA-tagged VCP Y796F (from UniProt P55072 1-806) (natural protein)”, the percent reduction of binding against WT VCP worked out at 50%.

Take “HA-tagged VCP Y796F/Y805F (from UniProt P55072 1-806) (natural protein)”: the percent reduction of binding against WT VCP is above 90%. In turn, “HA-tagged VCP Y805F (from UniProt P55072 1-806) (natural protein)” came in with a percent reduction of binding against WT VCP above 90%.
